What was measured:
[1] = target: T1, recombinant human CD73 (SEQ ID NO:70) (human, UniProt P21589 27-549); assay: SPR (Biacore 8K), antibody captured on anti-human Fc, CD73 as analyte, open conformation
T1 construct: Soluble recombinant protein in normal SPR running buffer (open conformation), the soluble enzyme assay and HDX-MS; SPR stock bought from BPS Bioscience; also called rhuCD73; CD73 in the open conformation
T1 sequence: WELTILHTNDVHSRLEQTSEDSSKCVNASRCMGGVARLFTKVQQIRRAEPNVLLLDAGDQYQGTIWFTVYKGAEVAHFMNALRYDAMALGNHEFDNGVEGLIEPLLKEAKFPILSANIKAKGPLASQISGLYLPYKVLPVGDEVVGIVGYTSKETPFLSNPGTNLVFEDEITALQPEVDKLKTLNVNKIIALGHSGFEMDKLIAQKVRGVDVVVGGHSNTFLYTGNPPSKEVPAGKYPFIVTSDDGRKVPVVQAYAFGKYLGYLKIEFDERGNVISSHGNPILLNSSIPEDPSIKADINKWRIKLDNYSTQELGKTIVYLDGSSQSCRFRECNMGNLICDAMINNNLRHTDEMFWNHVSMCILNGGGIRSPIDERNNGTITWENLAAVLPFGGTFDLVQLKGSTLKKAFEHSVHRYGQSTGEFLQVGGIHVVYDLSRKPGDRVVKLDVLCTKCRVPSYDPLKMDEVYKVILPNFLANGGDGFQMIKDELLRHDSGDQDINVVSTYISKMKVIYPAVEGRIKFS
Method: (§1) The SPR running buffer (10 mM HEPES, 150 mM NaCl, 3 mM EDTA and 0.05% v/v Surfactant P20, pH 7.4) was prepared from 10×HBS-EP Buffer (GE Healthcare). Anti-human Fc antibodies (GE Healthcare) were immobilized via amine coupling on all sixteen flow cells of an S series sensor chip CM5 (GE Healthcare). The immobilization levels were ˜9000 RU for all flow cells. […] The non-cleavable ADP analogue APCP (adenosine-5′-(α,β-methylene) diphosphate) with the presence of Zn²⁺ can be used to shift the CD73 conformational equilibrium from open towards closed. Therefore, recombinant CD73 was incubated with SPR running buffer in the presence of 100 μM APCP and 10 μM ZnCl₂ (closed SPR running buffer) to study the binding of anti-CD73 antibody to the CD73 in the closed conformation. To achieve this, the ABA injection feature in Biacore 8K was used. For open conformation, the ABA injection sequence started with 60 seconds injection of running buffer. Then, CD73 3-fold serial dilution concentration series prepared from CD73 stock (BPS Bioscience) and running buffer were injected for 180 seconds immediately followed by running buffer for 240 seconds. For closed conformation, the normal SPR running buffer was replaced by closed SPR running buffer. Surface was regenerated with 30 seconds injection of 3 M MgCl₂.

[2] = target: T2, human CD73 on the cell surface (MDA-MB-231 and A375 cells) (human, UniProt P21589 27-549); assay: flow cytometry on MDA-MB-231 cells, PE-conjugated secondary antibody, GMFI
T2 construct: also called cell surface CD73; cellular CD73
T2 sequence: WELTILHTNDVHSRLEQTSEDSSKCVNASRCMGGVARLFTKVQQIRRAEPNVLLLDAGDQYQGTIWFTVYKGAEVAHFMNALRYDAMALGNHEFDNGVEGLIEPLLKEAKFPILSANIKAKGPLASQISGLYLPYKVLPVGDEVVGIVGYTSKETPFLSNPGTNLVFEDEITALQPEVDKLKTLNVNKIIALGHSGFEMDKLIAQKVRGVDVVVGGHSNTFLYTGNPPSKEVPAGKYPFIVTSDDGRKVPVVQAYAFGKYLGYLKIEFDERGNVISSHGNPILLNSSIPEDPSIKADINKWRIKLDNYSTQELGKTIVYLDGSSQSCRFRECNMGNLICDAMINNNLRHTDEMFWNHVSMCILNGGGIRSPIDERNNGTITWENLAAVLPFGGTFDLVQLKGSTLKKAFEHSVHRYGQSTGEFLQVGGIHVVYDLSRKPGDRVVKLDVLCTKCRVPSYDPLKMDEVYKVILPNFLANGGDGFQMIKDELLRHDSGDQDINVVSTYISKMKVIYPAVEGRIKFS
Method: The cells were stained with the indicated concentration of antibodies for 30 minutes on ice (FIG. 2A and FIG. 2B). Next, the cells were washed and stained using goat anti-mouse secondary conjugated to phycoerythrin (PE) for 30 minutes on ice. The cells were then washed and analyzed by flow cytometry. Geometric mean fluorescence intensity (GMFI) of CD73 staining was graphed (FIG. 2A and FIG. 2B).

[3] = target: T3, cynomolgus CD73 in the closed conformation (cynomolgus, UniProt P21589 27-549 (human entry)); assay: SPR (Biacore 8K), antibody captured on anti-human Fc, CD73 as analyte, buffer with APCP and ZnCl2 (closed conformation)
T3 construct: Same protein as m2 in buffer with 100 uM APCP and 10 uM ZnCl2 (closed conformation); also called Cynomolgus, Closed
T3 chain: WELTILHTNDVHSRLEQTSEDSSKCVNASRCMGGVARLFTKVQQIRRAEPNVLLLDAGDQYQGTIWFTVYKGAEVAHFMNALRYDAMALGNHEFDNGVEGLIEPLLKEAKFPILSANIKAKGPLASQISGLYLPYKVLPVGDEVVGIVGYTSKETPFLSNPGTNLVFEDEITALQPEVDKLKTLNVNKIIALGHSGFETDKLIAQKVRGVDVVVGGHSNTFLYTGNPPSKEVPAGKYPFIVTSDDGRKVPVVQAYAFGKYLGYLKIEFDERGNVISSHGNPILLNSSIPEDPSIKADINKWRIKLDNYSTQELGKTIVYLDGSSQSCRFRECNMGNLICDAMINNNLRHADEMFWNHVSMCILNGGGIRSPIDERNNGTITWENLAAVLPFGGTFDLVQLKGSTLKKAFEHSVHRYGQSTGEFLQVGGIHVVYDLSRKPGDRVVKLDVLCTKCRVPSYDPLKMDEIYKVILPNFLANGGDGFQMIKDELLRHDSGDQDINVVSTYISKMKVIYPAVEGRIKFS
Method: as §1

[4] = target: T4, recombinant human CD73 in the closed conformation (human, UniProt P21589 27-549); assay: as above
T4 construct: Kept apart from m1 because results differ between the two states; also called human CD73, Closed
T4 sequence: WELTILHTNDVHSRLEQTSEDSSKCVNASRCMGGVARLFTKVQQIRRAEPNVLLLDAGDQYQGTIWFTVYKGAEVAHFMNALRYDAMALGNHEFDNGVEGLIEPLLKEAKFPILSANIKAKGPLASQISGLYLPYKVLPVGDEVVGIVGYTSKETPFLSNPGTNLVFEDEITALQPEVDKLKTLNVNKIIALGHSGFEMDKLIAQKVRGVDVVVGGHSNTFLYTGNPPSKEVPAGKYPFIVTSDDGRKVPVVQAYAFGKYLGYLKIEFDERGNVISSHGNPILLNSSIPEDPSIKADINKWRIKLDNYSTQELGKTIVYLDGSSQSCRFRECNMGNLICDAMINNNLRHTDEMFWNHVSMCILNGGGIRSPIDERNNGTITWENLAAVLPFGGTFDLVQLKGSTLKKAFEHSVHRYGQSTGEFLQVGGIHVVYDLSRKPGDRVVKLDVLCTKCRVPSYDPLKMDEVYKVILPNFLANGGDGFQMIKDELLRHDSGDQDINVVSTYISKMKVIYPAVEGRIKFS
Method: as §1

[5] = target: T5, mouse CD73 in the closed conformation (mouse, UniProt Q61503 29-551); assay: as above
T5 construct: Same protein as m3 in buffer with 100 uM APCP and 10 uM ZnCl2 (closed conformation); also called Murine, Closed
T5 sequence: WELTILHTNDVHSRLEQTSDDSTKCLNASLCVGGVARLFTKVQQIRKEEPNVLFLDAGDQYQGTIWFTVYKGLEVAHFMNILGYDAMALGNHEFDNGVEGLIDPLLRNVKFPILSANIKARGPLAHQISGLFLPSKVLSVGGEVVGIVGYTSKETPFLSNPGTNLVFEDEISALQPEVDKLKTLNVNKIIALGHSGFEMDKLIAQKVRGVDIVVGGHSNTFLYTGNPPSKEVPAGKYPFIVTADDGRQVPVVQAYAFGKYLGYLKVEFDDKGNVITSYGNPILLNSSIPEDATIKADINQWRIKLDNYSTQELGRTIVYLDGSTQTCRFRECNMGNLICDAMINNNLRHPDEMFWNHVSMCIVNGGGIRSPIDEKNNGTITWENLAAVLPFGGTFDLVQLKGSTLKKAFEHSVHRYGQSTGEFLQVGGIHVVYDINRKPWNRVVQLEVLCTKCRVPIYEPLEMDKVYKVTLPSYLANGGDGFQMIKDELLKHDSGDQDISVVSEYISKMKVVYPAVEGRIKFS
Method: as §1

[6] = target: T6, mouse CD73 (SEQ ID NO:71) (mouse, UniProt Q61503 29-551); assay: SPR (Biacore 8K), antibody captured on anti-human Fc, CD73 as analyte, open conformation
T6 construct: Open conformation (normal SPR running buffer); also called Murine; murine CD73
T6 sequence: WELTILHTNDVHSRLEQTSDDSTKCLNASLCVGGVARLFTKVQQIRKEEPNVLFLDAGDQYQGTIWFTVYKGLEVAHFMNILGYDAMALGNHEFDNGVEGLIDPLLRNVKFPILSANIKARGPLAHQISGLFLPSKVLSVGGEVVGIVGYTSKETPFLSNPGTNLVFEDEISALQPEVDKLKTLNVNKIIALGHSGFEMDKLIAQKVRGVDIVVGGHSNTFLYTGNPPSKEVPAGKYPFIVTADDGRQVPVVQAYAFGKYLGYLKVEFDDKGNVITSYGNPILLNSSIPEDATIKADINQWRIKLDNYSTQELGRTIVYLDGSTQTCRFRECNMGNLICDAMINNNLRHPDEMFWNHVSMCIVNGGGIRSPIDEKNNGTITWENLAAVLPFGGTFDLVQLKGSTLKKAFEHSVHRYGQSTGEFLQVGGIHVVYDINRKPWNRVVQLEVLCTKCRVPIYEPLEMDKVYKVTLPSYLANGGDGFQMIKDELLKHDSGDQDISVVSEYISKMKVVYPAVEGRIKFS
Method: as §1

[7] = target: T7, cynomolgus CD73 (SEQ ID NO:72) (cynomolgus, UniProt P21589 27-549 (human entry)); assay: as above
T7 construct: Open conformation (normal SPR running buffer)
T7 chain: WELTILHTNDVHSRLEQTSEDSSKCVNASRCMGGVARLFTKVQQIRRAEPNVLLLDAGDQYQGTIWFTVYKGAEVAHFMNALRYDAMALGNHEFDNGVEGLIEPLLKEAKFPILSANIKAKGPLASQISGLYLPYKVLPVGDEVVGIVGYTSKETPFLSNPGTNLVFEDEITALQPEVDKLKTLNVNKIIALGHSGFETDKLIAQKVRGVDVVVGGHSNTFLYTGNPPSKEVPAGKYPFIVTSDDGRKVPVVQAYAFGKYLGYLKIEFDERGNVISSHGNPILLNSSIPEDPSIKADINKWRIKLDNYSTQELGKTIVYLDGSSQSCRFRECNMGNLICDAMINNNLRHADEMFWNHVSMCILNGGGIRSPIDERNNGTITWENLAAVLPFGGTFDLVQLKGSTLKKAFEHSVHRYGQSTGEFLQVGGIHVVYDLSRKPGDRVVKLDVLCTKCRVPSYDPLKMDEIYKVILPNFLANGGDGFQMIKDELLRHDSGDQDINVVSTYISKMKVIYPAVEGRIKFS
Method: as §1

[8] = target: T2, human CD73 on the cell surface …; assay: flow cytometry on MDA-MB-231 cells, PE-conjugated secondary antibody, GMFI; remark: listed apart in the source
[9] = target: T2, human CD73 on the cell surface …; assay: flow cytometry on A375 cells, PE-conjugated secondary antibody, GMFI
[10] = target: T2, human CD73 on the cell surface …; assay: flow cytometry on MDA-MB-231 cells, PE-conjugated secondary antibody, GMFI; remark: listed apart in the source
Method: Cells were stained with the indicated concentration of antibodies for 1 hour on ice. Cells were then washed and stained goat anti-mouse secondary conjugated to PE for 30 minute on ice. Cells were then washed and analyzed by flow cytometry. The GMFI of CD73 staining is graphed (FIG. 13).

B1: CL25_hu_11-4 (antibody, V domains shown)
VH: QVQLVQSGAEVKKPGASVKVSCKASGYTFTSYGLSWVRQATGQGLEWMGEIYPGSGNTYYNEKFKGRVTMTANTSISTAYMELSSLRSEDTAVYYCARYDYLGSSYGFDYWGAGTTVTVSS
VL: DIQMTQSPSSLSASVGDRVTITCKASQDVSTAVAWYQQKPGKAPKLLLYSASYRYSGVPSRFSGSGSGTDYTLTISSLQPEDFATYYCQQHYNTPYTFGGGTKLEIK
notes: Humanized CL25 antibody
Kd [1]: 2480 pM | koff [1]: 0.00155 s⁻¹ | kon [1]: 624000 M⁻¹ s⁻¹ | EC50 (read off the curve) [2]: ~0.1 µg/mL

B2: CL25 (chimeric antibody, murine VH/VL with human IgG1/kappa constant regions) (antibody, V domains shown)
VH: QVQLQQSGAELARPGASVKLSCRASGYTFTSYGLSWVKQRTGQGLEWIGEIYPGSGNTYYNEKFKGKATLTADKSSSTAYMELRSLTSEDSAVYFCARYDYLGSSYGFDYWGQGTTLTVSS
VL: DIVMTQSHKFMSTSVGDRVSITCKASQDVSTAVAWYQQKPGQSPKLLIYSASYRYNGVPDRFTGSGSGTDFTFTISSVQAEDLAVYYCQQHYNTPYTFGGGTKLEIKR
notes: also called Chimeric antibody CL25
Kd [3]: 529 pM | koff [3]: 0.000495 s⁻¹ | kon [3]: 936000 M⁻¹ s⁻¹ | Kd [4]: 381 pM | koff [4]: 0.000344 s⁻¹ | kon [4]: 903000 M⁻¹ s⁻¹ | binding result [5]: no binding | binding result [6]: no binding | Kd [1]: < 394 pM | koff [1]: 0.000394 s⁻¹ | kon [1]: > 1e+06 M⁻¹ s⁻¹ | Kd [7]: < 658 pM | koff [7]: 0.000658 s⁻¹ | kon [7]: > 1e+06 M⁻¹ s⁻¹

B3: 3-F03 (full-length human antibody) (antibody, human IgG1, kappa, N297A)
heavy: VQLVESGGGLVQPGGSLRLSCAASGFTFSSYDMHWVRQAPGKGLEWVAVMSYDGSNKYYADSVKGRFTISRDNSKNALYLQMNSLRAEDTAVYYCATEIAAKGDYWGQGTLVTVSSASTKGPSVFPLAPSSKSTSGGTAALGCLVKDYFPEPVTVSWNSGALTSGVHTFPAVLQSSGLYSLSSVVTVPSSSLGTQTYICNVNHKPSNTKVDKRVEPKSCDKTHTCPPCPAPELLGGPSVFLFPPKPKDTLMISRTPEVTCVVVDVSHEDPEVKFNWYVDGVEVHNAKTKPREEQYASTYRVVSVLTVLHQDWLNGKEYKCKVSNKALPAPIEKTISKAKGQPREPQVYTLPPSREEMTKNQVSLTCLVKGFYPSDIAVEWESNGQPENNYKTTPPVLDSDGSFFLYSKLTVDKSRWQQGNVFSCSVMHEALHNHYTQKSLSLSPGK
light: IQMTQSPSSLSASVGDRVTITCRASQGISNYLAWYQQKPGKAPKLLIYAASTLQSGVPSRFSGSGSGTDFTLTISSLQPEDFATYYCQQSYSTPHFGQGTRLEIKRTVAAPSVFIFPPSDEQLKSGTASVVCLLNNFYPREAKVQWKVDNALQSGNSQESVTEQDSKDSTYSLSSTLTLSKADYEKHKVYACEVTHQGLSSPVTKSFNRGEC
notes: Human IgG1/kappa with N297A; also called Antibody 3-F03; Clone 3-F03
Kd [6]: 1660 pM | Kd [1]: 370 pM | Kd [7]: 734 pM | EC50 (read off the curve) [8]: ~3 µg/mL | EC50 (read off the curve) [9]: ~0.1 µg/mL

B4: 3-F03_411 (antibody, human IgG1, kappa, N297A)
heavy: not shown
light: IQMTQSPSSLSASVGDRVTITCRASQGISNYLAWYQQKPGKAPKLLIYAASTLQSGVPSRFSGSGSGTDFTLTISSLQPEDFATYYCQQSYSTPHFGQGTRLEIKRTVAAPSVFIFPPSDEQLKSGTASVVCLLNNFYPREAKVQWKVDNALQSGNSQESVTEQDSKDSTYSLSSTLTLSKADYEKHKVYACEVTHQGLSSPVTKSFNRGEC
EC50 (read off the curve) [10]: ~1 µg/mL
